Source: the DeepSol protein solubility set

Assay: soluble on expression in E. coli; label from the status in PepcDB or PDB records

Sequence: MRNPENVLNSLSKHSGNLNYKFERLYRVLFNEEMFYVAYQNIYSKTGNMTAGADGKTIDGMSIDRVEQLIGSLKNETYQPNPSKRTYIPKKNGKKRPLGIPSFDDKLVQEVVRMILEAIYEGSFEHTSHGFRPKRSCHTALIDIQKTFTAVKWFIEGDIKGFFDNINHDVLINILRERIADERFLRLIRKFLNAGYVEDWVFHRTYSGTPQGGIISPILANIYLDKFDKYIKEYINRFNKGVTRKGDARYKLYEQRRYRLAKKLKNEKDVKVRKQMTAEIKRLREERNNYPARNEMDSSIKRLKYVRYADDFLIGITGNLEDCKTVKEDIKNYLNEALKLELSDEKTLITNAQKPAKFLGYDVFIRRCNDLRKDKYGKTVRAFGHKPVLYLNFETMRKKLFDYKAARIAVVNGKEVWKSIVRTYMLNLDDLEIVSQFNAEIRGFYNYYSIANNSYVINSFYHIMSYSMYKVFANKYKSSVKKILLKYKKNKVFQVAYENSKGKTLYQSFYHDGFKRKKVAGNIYCDTIPRTVSITGGRNSLMERLKLQVCELCGATDKLEMHHVRKLKDLKGKSDWEKKMIARRRKTLAVCSKCHAKIDPDRRIRLNLEHHHHHH
- soluble on expression in E. coli: soluble

Sequence: SANEAYPCPCDIGHRLEYGGLGREVQVEHIKAYVTKSPVDAGKAVIVIQDIFGWQLPNTRYIADMISGNGYTTIVPDFFVGQEPWDPSGDWSIFPEWLKTRNAQKIDREISAILKYLKQQCHAQKIGIVGFCWGGTAVHHLMMKYSEFRAGVSVYGIVKDSEDIYNLKNPTLFIFAENDVVIPLKDVSLLTQKLKEHCKVEYQIKTFSGQTHGFVHRKREDCSPADKPYIDEARRNLIEWLNKYM
- soluble on expression in E. coli: soluble

Sequence: MKNKLLYKLRSGKNPKFIYYSVNALRLIIPKGIFRLRLQGKLSSLSRRKDKEYIEHRVDYYNKLSGTVQLPSSAPHLSEHKMSKQKVYFFDTYQYTRWFSDQFQWGFCPGDVTFVPDYPSIVKSRPLTDDNVNSIVMKLDKVRHFIFVDDKKAFTEKKNMVIFRGKVKGKPSRKLFMEMYFHHPMCDLGDVSKNTTDPAEWRTEKKTINEHLDYKFIMALEGIDVASNLKWVMSSNSIAVMPRPTCETWFMEGTLIPNYHYIEIKPDFSDLEERLNYYIEHVDESLEIINHAHEYVSQFKDKRRENLISLLVLDKYFKMTGQKSLEHHHHHH
- soluble on expression in E. coli: soluble

Sequence: MGSDKIHHHHHHMTLINKLKQHLSDSQITQAQLAREAGVNAGALSAYLNDNYKGNIADVEAKLAAYLEKKAVQAREFVEAPAFIETATSRQIFKTLEFAQIANCLATVYGMSGVGKTKAIQEFAKSHANVWLVTASPSRSSLSEILYEIALELGISDAPRRKGTLSRLIARKIKGTEGLLIVDEADHLPYEALEELRIMQEEAGIGLVLVGNDKVYTRMKGGISPSHEYARLWSRVAKNTSIQKTKKADTQAVAQAWGLETDEEALKVMQSITETGGGLRILTQTYACRNGSKRIWQVD
- soluble on expression in E. coli: not soluble

Sequence: MGSDKIHHHHHHMPLMPTTLCSHAGCNARAVGNGVCRIHKPKAKRQAPNQIKQAEPAKLKRIDHRLSASQRGYDVRWRSARLLFLNDEPLCRHCITQDITKGADVVDHILPHRGNQELFWDQTNWQPLCYPCHSIKTTTVDNKLSDYDIAQLRQGGWGKK
- soluble on expression in E. coli: not soluble

Sequence: MSLWPQMQYRQLQLAREKLLERLARKRNSTVITLIHRQESIGLFGIPVYRFISIEDSEEVLRAIRMAPKDKPIDLIIHTPGGLVLAATQIAKALKDHPAETRVIVPHYAMSGGTLIALAADKIIMDPHAVLGPVDPQLGQYPAPSIVRAVEKKGVDKVDDQTLILADVAEKAIRQVRDFIFNLLKDKYGEEKAKELAQVLTEGRWTHDYPITVEEAKKLGLNVSTDVPEEVYALMELYKQPIRQRGTVEFVPYPMKQEGKHEGHHHHHH
- soluble on expression in E. coli: soluble

Sequence: VRPAIKVGLSTASVYPLRAEAAFEYADRLGYDGVELMVWGESVSQDIDAVRKLSRRYRVPVLSVHAPCLLISQRVWGANPILKLDRSVRAAEQLGAQTVVVHPPFRWQRRYAEGFSDQVAALEAASTVMVAVENMFPFRADRFFGAGQSRERMRKRGGGPGPAISAFAPSYDPLDGNHAHYTLDLSHTATAGTDSLDMARRMGPGLVHLHLCDGSGLPADEHLVPGRGTQPTAEVCQMLAGSGFVGHVVLEVSTSSARSANERESMLAESLQFARTHLLR
- soluble on expression in E. coli: not soluble

Sequence: MVVFVQSRKRWTYSSAHLLVEEYPSKKVDFKEFASKLTEDEINLRVMPIFWVAGHDNAVLSSTISDSTVALLSRWDVIAAMEAVSRYKVTSMYLTFDMYWQILEHPERELEIFEDLYTFKLCEKGLTVQLREKWKEVAGAILREARTS
- soluble on expression in E. coli: not soluble
